Experimental data from the emibetuzumab library of Makowski et al. (2022).

B1: VH:VL chains; a variant is named by its letters at X, in order (parent)
chain 1: QVQLVQSGAEVKKPGASVKVSCKASGYTFTDYXMHWVRQAPGQGLEWMGXVNPNXXXTTYNQKFEGRVTMTTDTSTSTAYMELRSLRSDDTAVYYCARXNXLDXWGQGTTVTVSS
chain 2: DIQMTQSPSSLSASVGDRVTITCSVSSSVSSIYLHWYQQKPGKAPKLLIYSTSNLASGVPSRFSGSGSGTDFTLTISSLQPEDFATYYCQVYSGYPLTFGGGTKVEIK

Variants of: B1
Assay: yeast display scFab, FACS + sequencing
Method in brief: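 For the non-specific binding call, a heavy-chain CDR mutant scFab library on the yeast surface was FACS-sorted and samples from two replicates were deep sequenced. Cells were labelled with anti-Myc and either biotinylated ovalbumin (260 μg/mL in PBSB, 3 h, room temperature) or soluble membrane proteins (130 μg/mL, 20 min on ice), with gates on the top 25% and bottom 10% of binders. With membrane protein and ovalbumin samples pooled, a sequence in ≥3 of 4 positive samples and no negatives was scored positive, and the converse rule scored negatives.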

Variant | non-specific binding call
DRKGGDWS | binds
YRKGGFSS | binds
YRKGGFVA | binds
YRKGGSAA | binds
YRKGGSGA | binds
FRKGGSGD | binds
YRKGGSGV | binds
VRKGGSGV | binds
FRKGGSGV | binds
YRKGGSGY | binds
FRKGGSLD | binds
VRKGGSLD | binds
YRKGGSVS | binds
VRKGGSVY | binds
YRKGGSWS | binds
VRKGGVAV | binds
YRKGSAAA | binds
YRKGSAGD | binds
YRKGSALD | binds
YRKGSASD | binds
FRKGSAVD | binds
YRKGSAWD | binds
YRKGSSAA | binds
YRKGSSGA | binds

Variant | non-specific binding call
VRKGSSGD | binds
YRKGSSGD | binds
ARKGSSGD | binds
YRKGSSGF | binds
YRKGSSGV | binds
YRKGSSLF | binds
YRKGSSVD | binds
YRKGSSVS | binds
YRKGSSWD | binds
YRKGTAGD | binds
FRKGTALD | binds
YRKKGALY | binds
SRKKGDGS | binds
YRKKGDLA | binds
VRKKGVSS | binds
VRKKGYVY | binds
YRKKSVGA | binds
YRKKTDWS | binds
YRKRGAAA | binds
YRKRGAAD | binds
YRKRGAGA | binds
YRKRGAGD | binds
VRKRGALD | binds
YRKRGAVD | binds

Variant | non-specific binding call
FRKRGAWY | binds
YRKRGDVV | binds
FRKRGSAV | binds
YRKRGSGV | binds
YRKRGSLV | binds
YRKRGSLY | binds
YRKRGSSA | binds
VRKRGSSS | binds
YRKRGSVF | binds
FRKRGSVF | binds
YRKRGSVV | binds
YRKRGVGV | binds
FRKRSFSS | binds
YRKRSVVF chain 1 S115F | binds
YRKRTFGA | binds
ARKTGAGA | binds
YRRAADSD | binds
VRRAADSD | binds
YRRANFLD | binds
VRRANFLD | binds
DRRANFLY | binds
VRRASSVA | binds
DRREDALD | no binding
DRREDSSA | no binding

Variant | non-specific binding call
YRREGAGD | binds
YRREGDWA | binds
YRREGSAV | binds
YRREGSGV | binds
YRREGSLA | binds
YRREGSLD | binds
FRREGSSD | binds
YRREGSVV | binds
DRREGYGA | binds
YRRESAGF | binds
YRRESSGV | binds
YRRESSGY | binds
SRRETFVF | binds
VRRETVSD | binds
YRRGAAAA | binds
YRRGAAAV | binds
YRRGAAGD | binds
ARRGAAGV | binds
YRRGAAWA | binds
YRRGASGV | binds
YRRGASSS | binds
YRRGASWD | binds
ARRGAYGV | binds
YRRGDAAF | binds

Variant | non-specific binding call
FRRGDAAV | binds
FRRGDAGD | binds
YRRGDAGF | binds
YRRGDAGS | binds
VRRGDAGY | no binding
FRRGDALD | binds
YRRGDASD | binds
DRRGDASD | no binding
FRRGDAVA | binds
DRRGDAVA | no binding
DRRGDAVY | no binding
YRRGDAWD | binds
YRRGDAWY | binds
DRRGDDGA | no binding
YRRGDDGD | binds
DRRGDDGV | no binding
DRRGDDVF | no binding
VRRGDDVY | no binding
YRRGDFWA | no binding
VRRGDFWA | no binding
FRRGDSAA | binds
YRRGDSAD | binds
YRRGDSGV | binds
DRRGDSLV | no binding

Variant | non-specific binding call
YRRGDSLY | binds
YRRGDSSA | binds
DRRGDSSA | no binding
VRRGDSSD | no binding
VRRGDSVA | binds
YRRGDSWD | binds
VRRGDVGV | binds
VRRGGAAA | binds
FRRGGAAA | binds
YRRGGAAA | binds
YRRGGAAD | binds
YRRGGAAF | binds
VRRGGAAS | binds
FRRGGAAS | binds
YRRGGAAS | binds
YRRGGAAV | binds
YRRGGAAY | binds
FRRGGAGD | binds
YRRGGAGF | binds
YRRGGAGV | binds
FRRGGAGY | binds
YRRGGAGY | binds
YRRGGALA | binds
FRRGGALD | binds

Variant | non-specific binding call
VRRGGALD | binds
YRRGGALD | binds
YRRGGALV | binds
YRRGGASA | binds
FRRGGASA | binds
YRRGGASD | binds
YRRGGAVA | binds
FRRGGAVD | binds
YRRGGAVS | binds
FRRGGAVV | binds
YRRGGAWA | binds
YRRGGAWD | binds
FRRGGAWD | binds
YRRGGAWS | binds
VRRGGAWV | binds
FRRGGAWV | binds
YRRGGAWV | binds
FRRGGAWY | binds
YRRGGAWY | binds
YRRGGDGA | binds
YRRGGFGA | binds
YRRGGFGV | binds
YRRGGFVV | binds
YRRGGSAA | binds

Variant | non-specific binding call
VRRGGSAA | binds
FRRGGSAA | binds
FRRGGSAD | binds
FRRGGSAF | binds
YRRGGSAV | binds
YRRGGSGA | binds
VRRGGSGD | binds
YRRGGSGD | binds
ARRGGSGF | binds
VRRGGSGS | binds
FRRGGSGS | binds
ARRGGSGS | binds
YRRGGSGS | binds
FRRGGSGV | binds
YRRGGSGY | binds
FRRGGSLD | binds
YRRGGSLS | binds
YRRGGSSA | binds
YRRGGSVA | binds
ARRGGSVD | binds
YRRGGSVD | binds
FRRGGSVD | binds
YRRGGSVF | binds
YRRGGSVS | binds

Variant | non-specific binding call
YRRGGSWD | binds
YRRGGSWV | binds
YRRGGVGA | binds
YRRGGVGV | binds
YRRGGYAV | binds
YRRGGYVD | binds
SRRGGYVS | binds
VRRGSAGD | binds
YRRGSAGF | binds
YRRGSAGS | binds
VRRGSAGS | binds
FRRGSALA | binds
YRRGSALS | binds
YRRGSALY | binds
YRRGSASD | binds
VRRGSASD | binds
YRRGSASS | binds
SRRGSASS | binds
YRRGSASV | binds
YRRGSAVA | binds
FRRGSAVA | binds
YRRGSAVD | binds
ARRGSAVS | binds
YRRGSAVY | binds

Variant | non-specific binding call
YRRGSAWA | binds
DRRGSDAV | no binding
VRRGSDGV | no binding
ARRGSDLA | no binding
ARRGSDVA | no binding
YRRGSFAA | binds
VRRGSFGA | binds
YRRGSFGA | binds
FRRGSSAA | binds
YRRGSSAA | binds
VRRGSSAD | binds
VRRGSSAF | binds
VRRGSSAS | binds
YRRGSSAV | binds
VRRGSSAV | binds
FRRGSSAV | binds
FRRGSSGA | binds
YRRGSSGA | binds
FRRGSSGD | binds
VRRGSSGD | binds
YRRGSSGF | binds
FRRGSSGS | binds
YRRGSSGS | binds
ARRGSSLD | no binding

Variant | non-specific binding call
VRRGSSLF | binds
YRRGSSLF | binds
YRRGSSLS | binds
YRRGSSLV | binds
YRRGSSLY | binds
YRRGSSSA | binds
YRRGSSSV | binds
YRRGSSVF | binds
VRRGSSVS | binds
YRRGSSVS | binds
FRRGSSVV | binds
VRRGSSVV | binds
YRRGSSVV | binds
YRRGSVGA | binds
YRRGSVGV | binds
YRRGSYVY | binds
YRRGTSVD | binds
